Results on 1 substance are retold here after PMC10174534.

This test concerns the target SARS-CoV-2 ΔN135 spike (S) protein, soluble prefusion-stabilised ectodomain trimer (SARS-CoV-2) (UniProt P0DTC2). In words: SEC-MALS. (SEC sorts molecules by how far they enter the pores of the column.)

In general, stoichiometry N refers to the number of molecules, sites or subunits per partner or assembly. “SARS-CoV-2 ΔN135 spike (S) protein, soluble prefusion-stabilised ectodomain trimer (from UniProt P0DTC2 22-1208) (natural protein)” yielded a stoichiometry N of 3.
